From article PMC7782793, “Hydroxamic acid-modified peptide microarrays for profiling isozyme-selective interactions and inhibition of histone deacetylases” (Nature Communications, 2021)
Residues, ends and D or L forms follow the SMILES beside them.

Assays:
Assay in all cases: Recombinant HDAC µSPOT microarray binding assay;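 on Bottom (Value): Cellulose-bound peptide spots on slides incubated with six HDAC enzyme concentrations, binding intensity read, four-parameter variable-slope fit, EC50 is enzyme concentration giving half-maximal binding, in HEPES buffer pH 7.4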;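 on Bottom (dose-response curve fit): peptide spots on cellulose slides incubated with rising HDAC enzyme concentrations, imaged together, four-parameter logistic fit, EC50 is enzyme concentration giving half-maximal binding signal, two experiments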;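 on Bottom (dose-response curve fit): relative spot intensity from the six enzyme-concentration slides imaged together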;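 on Bottom (dose-response fit): slides with spotted peptides incubated with six HDAC concentrations in HEPES buffer pH 7.4, spot intensities fitted by four-parameter logistic, EC50 as enzyme concentration giving half-maximal binding signal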;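 on HillSlope (Value): Cellulose-bound peptide spots on slides incubated with six HDAC enzyme concentrations, binding intensity read, four-parameter variable-slope fit, EC50 is enzyme concentration giving half-maximal binding, in HEPES buffer pH 7.4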;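 on LogEC50 (M): slides with spotted peptides incubated with six HDAC concentrations in HEPES buffer pH 7.4, spot intensities fitted by four-parameter logistic, EC50 as enzyme concentration giving half-maximal binding signal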;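 on Top (Value): Cellulose-bound peptide spots on slides incubated with six HDAC enzyme concentrations, binding intensity read, four-parameter variable-slope fit, EC50 is enzyme concentration giving half-maximal binding, in HEPES buffer pH 7.4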;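 on Top (dose-response curve fit): peptide spots on cellulose slides incubated with rising HDAC enzyme concentrations, imaged together, four-parameter logistic fit, EC50 is enzyme concentration giving half-maximal binding signal, two experiments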;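 on Top (dose-response curve fit): relative spot intensity from the six enzyme-concentration slides imaged together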;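 on Top (dose-response fit): slides with spotted peptides incubated with six HDAC concentrations in HEPES buffer pH 7.4, spot intensities fitted by four-parameter logistic, EC50 as enzyme concentration giving half-maximal binding signal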;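 on Top: relative spot intensity from the six enzyme-concentration slides imaged together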
HDAC3/NCoR2 = target: T1, HDAC3/NCoR2 (Homo sapiens, UniProt O15379); details: HDAC3 µSPOT microarray, Fig. 3, X = Asuha; for HillSlope: Hill slope of dose-response fit; for Bottom (dose-response curve fit): fitted bottom plateau of binding signal; for Top (dose-response curve fit): fitted top plateau of binding signal;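 on Bottom (dose-response curve fit): relative spot intensity from the six enzyme-concentration slides imaged together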;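 on Top (dose-response curve fit): relative spot intensity from the six enzyme-concentration slides imaged together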;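 on all read-outs here: peptide spots on cellulose slides incubated with rising HDAC enzyme concentrations, imaged together, four-parameter logistic fit, EC50 is enzyme concentration giving half-maximal binding signal, two experiments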
T1 construct: HDAC3/NCoR2 (full length, C-terminal His tag, NCoR2 N-terminal GST tag); purchased BPS Bioscience 50003
T1 sequence (O15379 whole entry): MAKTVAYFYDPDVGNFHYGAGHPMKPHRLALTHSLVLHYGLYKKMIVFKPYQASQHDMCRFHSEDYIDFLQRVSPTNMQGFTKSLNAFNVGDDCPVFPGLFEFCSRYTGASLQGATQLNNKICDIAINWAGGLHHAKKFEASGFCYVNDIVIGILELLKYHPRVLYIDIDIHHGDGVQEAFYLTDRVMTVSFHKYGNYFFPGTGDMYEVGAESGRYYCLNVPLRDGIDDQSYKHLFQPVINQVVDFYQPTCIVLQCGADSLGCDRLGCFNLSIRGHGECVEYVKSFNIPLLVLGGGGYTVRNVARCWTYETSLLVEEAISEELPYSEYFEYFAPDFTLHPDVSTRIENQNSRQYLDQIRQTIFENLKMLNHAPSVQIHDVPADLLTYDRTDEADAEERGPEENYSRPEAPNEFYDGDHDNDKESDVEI
T1 sequence (Q9Y618 389-480 partner limits assumed): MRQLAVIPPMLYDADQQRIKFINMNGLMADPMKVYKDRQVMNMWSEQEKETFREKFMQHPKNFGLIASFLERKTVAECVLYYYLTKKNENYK

HDAC1 = target: T2, HDAC1 (Homo sapiens, UniProt Q13547); details: µSPOT microarray, recombinant HDAC1, Fig. 3, X = Asuha; for HillSlope: Hill slope of the binding curve; for Bottom (dose-response fit): fitted bottom plateau of the binding curve; for Top (dose-response fit): fitted top plateau of the binding curve;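 on all read-outs here: slides with spotted peptides incubated with six HDAC concentrations in HEPES buffer pH 7.4, spot intensities fitted by four-parameter logistic, EC50 as enzyme concentration giving half-maximal binding signal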
T2 construct: HDAC1 (full length, C-terminal His tag, C-terminal FLAG tag, BPS Bioscience, cat. #: 50051); FLAG (C); purchased BPS Bioscience 50051
T2 sequence (Q13547 whole entry): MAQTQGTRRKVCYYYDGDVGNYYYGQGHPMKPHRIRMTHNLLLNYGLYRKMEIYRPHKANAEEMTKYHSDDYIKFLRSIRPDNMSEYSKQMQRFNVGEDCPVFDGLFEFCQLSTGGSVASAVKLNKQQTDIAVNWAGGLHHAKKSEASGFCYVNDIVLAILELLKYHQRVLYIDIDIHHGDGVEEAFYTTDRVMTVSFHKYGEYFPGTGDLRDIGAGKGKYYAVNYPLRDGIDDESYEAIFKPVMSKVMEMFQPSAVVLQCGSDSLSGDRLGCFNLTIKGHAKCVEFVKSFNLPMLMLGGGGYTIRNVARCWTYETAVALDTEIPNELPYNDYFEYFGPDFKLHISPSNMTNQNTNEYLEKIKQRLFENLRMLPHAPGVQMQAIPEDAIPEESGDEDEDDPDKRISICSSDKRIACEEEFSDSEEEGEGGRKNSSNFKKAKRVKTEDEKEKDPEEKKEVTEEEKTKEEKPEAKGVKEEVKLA

HDAC8 = target: T3, HDAC8 (Homo sapiens, UniProt Q9BY41); details: HDAC8 µSPOT microarray dose-response fit, X = Asuha, sheet Fig. 3 HDAC8; for Bottom: Bottom Value; for HillSlope: HillSlope Value; for Top: Top Value;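 on Top: relative spot intensity from the six enzyme-concentration slides imaged together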;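 on all read-outs here: peptide µSPOT slides incubated with varying HDAC enzyme concentrations, imaged signal intensity fitted by four-parameter variable-slope regression, EC50 is enzyme concentration giving half-maximal binding, pH 7.4 HEPES buffer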
T3 construct: HDAC8 (full length, C-terminal His tag, BPS Bioscience, cat. #: 50008); purchased BPS Bioscience 50008
T3 sequence (Q9BY41 1-377): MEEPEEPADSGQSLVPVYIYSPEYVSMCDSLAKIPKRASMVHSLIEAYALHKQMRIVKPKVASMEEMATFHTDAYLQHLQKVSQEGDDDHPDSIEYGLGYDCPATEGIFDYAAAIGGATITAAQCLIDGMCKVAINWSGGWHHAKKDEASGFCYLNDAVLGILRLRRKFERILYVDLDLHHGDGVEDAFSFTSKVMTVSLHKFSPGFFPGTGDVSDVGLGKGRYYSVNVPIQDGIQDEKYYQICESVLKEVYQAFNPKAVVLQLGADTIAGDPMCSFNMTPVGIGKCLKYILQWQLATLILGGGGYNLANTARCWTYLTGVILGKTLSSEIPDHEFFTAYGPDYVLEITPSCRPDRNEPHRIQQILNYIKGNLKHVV
Description: (§1) Experiments were performed twice, data were obtained with Array Analyze software (Active Motif), and data analysis and representation were performed with the GraphPad Prism 7 software. Outliers were curated manually and data were fitted to nonlinear regression [log(agonist) vs. response—variable slope (four parameters)]. […] Non-sigmoidal curves were denoted as not determined (N.D.) The pEC50 values were determined as the concentration of HDAC enzyme required for half-maximal binding signal.

HDAC2 = target: T4, HDAC2 (Homo sapiens, UniProt Q92769); details: HDAC2 microarray dose-response curve fit, X = Asuha, sheet Fig. 3 HDAC2; for Bottom (Value): bottom plateau; for Top (Value): top plateau;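 on all read-outs here: Cellulose-bound peptide spots on slides incubated with six HDAC enzyme concentrations, binding intensity read, four-parameter variable-slope fit, EC50 is enzyme concentration giving half-maximal binding, in HEPES buffer pH 7.4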
T4 construct: HDAC2 (full length, C-terminal His tag, BPS Bioscience, cat. #: 50002); purchased BPS Bioscience 50002
T4 sequence (Q92769 whole entry): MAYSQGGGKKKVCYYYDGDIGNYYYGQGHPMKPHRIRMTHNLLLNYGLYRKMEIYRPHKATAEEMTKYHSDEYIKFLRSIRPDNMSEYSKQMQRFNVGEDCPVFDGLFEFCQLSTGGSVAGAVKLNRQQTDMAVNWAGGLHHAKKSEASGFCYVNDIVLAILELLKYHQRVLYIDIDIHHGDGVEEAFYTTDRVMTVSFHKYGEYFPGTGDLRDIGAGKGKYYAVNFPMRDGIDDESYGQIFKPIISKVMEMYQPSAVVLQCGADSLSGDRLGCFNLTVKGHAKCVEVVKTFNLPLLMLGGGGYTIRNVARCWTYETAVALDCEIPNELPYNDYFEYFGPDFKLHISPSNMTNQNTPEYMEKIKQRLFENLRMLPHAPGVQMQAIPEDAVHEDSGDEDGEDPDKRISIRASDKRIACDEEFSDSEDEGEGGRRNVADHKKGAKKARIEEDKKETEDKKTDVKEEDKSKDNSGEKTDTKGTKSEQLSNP
Description: as §1

Compound | HillSlope (HDAC3/NCoR2) | Bottom (dose-response curve fit) (HDAC3/NCoR2) | Top (dose-response curve fit) (HDAC3/NCoR2) | HillSlope (HDAC1) | Bottom (dose-response fit) (HDAC1) | Top (dose-response fit) (HDAC1) | Bottom (HDAC8) | HillSlope (HDAC8) | Top (HDAC8) | Bottom (Value) (HDAC2) | Top (Value) (HDAC2) | HillSlope (Value) (HDAC2) | LogEC50 (M) (HDAC1; values are log10 of EC50 in M)
CC[C@H](C)[C@H](NC(=O)[C@H](C)NC(=O)[C@H](CC(C)C)NC(=O)[C@H](CCC(N)=O)NC(=O)[C@H](CC(C)C)NC(=O)[C@H](Cc1c[nH]cn1)NC(=O)[C@H](CCCNC(=N)N)NC(=O)[C@@H]1CCCN1C(=O)[C@@H](NC(=O)[C@@H](NC(=O)[C@H](CCCNC(=N)N)NC(=O)[C@@H](NC(C)=O)[C@@H](C)O)[C@@H](C)CC)[C@@H](C)CC)C(=O)N[C@@H](CCCNC(=N)N)C(=O)N[C@@H](CC(N)=O)C(=O)N[C@@H](CC(=O)O)C(=O)N[C@@H](CCC(=O)O)C(N)=O [H2A 76-91] (Ac-TRIIPRHLQLAIRNDE-NH2) | 1.12 | 0.01 | 1.3 | 0.92 | 0.02 | 2.64 | 0.03 | 7.33 | 0.15 | 0.03 | 73.18 | 0.93 | –
CC[C@H](C)[C@H](NC(=O)[C@H](CCC(=O)O)NC(=O)[C@H](CCCNC(=N)N)NC(=O)[C@H](CO)NC(=O)[C@@H](NC(=O)[C@@H](NC(=O)[C@@H](NC(C)=O)[C@@H](C)O)[C@@H](C)CC)[C@@H](C)O)C(=O)N[C@@H](CCC(N)=O)C(=O)N[C@H](C(=O)N[C@@H](C)C(=O)N[C@H](C(=O)N[C@@H](CCCNC(=N)N)C(=O)N[C@@H](CC(C)C)C(=O)N[C@@H](CC(C)C)C(=O)N[C@@H](CC(C)C)C(=O)N1CCC[C@H]1C(N)=O)C(C)C)[C@@H](C)O [H2B 88-103] (Ac-TITSREIQTAVRLLLP-NH2) | 1.33 | 0.01 | 0.74 | 1.19 | 0.05 | 1.11 | 0.03 | 10.85 | 0.09 | 0.04 | 0.21 | 1.75 | –
H2A 16-31 (TRSSRAGLQFPVGRVH; microarray-immobilized; UniProt P0C0S8 17-32, looked up, fragment) | 0.97 | 0.01 | 0.73 | 1 | 0.03 | 1.15 | 0.05 | 6.81 | 0.12 | 0.04 | 3.35 | 1.17 | -7.63
H2A 19-34 (SRAGLQFPVGRVHRLL; UniProt P04908 20-35, looked up, fragment) | 1.37 | 0.02 | 0.67 | 0.75 | 0.02 | 2.31 | 0.05 | 8.22 | 0.14 | 0.04 | 76.12 | 0.81 | –
H2A 40-55 (AERVGAGAPVYLAAVL; UniProt P0C0S8 41-56, looked up, fragment) | 1.44 | 0 | 0.3 | 0.82 | 0.02 | 5.13 | 0.01 | 2.67 | 0.08 | -0.05 | 0.06 | 0.08 | –
H2A 100-115 (VTIAQGGVLPNIQAVL; UniProt P0C0S8 101-116, looked up, fragment) | 1.35 | 0 | 0.72 | 1.46 | 0.02 | 0.26 | 0.02 | 0.63 | 7.44 | 0.02 | 9.23 | 0.88 | –
H2B 58-73 (AMGIMNSFVNDIFERI; UniProt P06899 59-74, looked up, fragment) | 1.96 | 0.02 | 0.22 | 0.92 | 0.02 | 1.87 | 0.01 | 0.19 | 6.07 | 0.03 | 0.16 | 2.23 | –

Other lines, results leading:

HillSlope (HDAC3/NCoR2) | Bottom (dose-response curve fit) (HDAC3/NCoR2) | Top (dose-response curve fit) (HDAC3/NCoR2) | HillSlope (HDAC1) | Bottom (dose-response fit) (HDAC1) | Top (dose-response fit) (HDAC1) | Bottom (HDAC8) | HillSlope (HDAC8) | Top (HDAC8) | Bottom (Value) (HDAC2) | Top (Value) (HDAC2) | HillSlope (Value) (HDAC2) | LogEC50 (M) (HDAC1; values are log10 of EC50 in M) | Compound
0.78 | 0 | 0.79 | 0.92 | 0.01 | 6.54 | 0.01 | 7.44 | 0.07 | 0.01 | 3.9 | 0.79 | – | H2A 37-52 (GNYSERVGAGAPVYLA; UniProt P04908 38-53, looked up, fragment)
1.43 | 0.01 | 0.51 | 1.25 | 0.02 | 0.24 | 0.02 | 0.58 | 21.03 | 0.01 | 27.24 | 0.62 | – | H2A 46-61 (GAPVYLAAVLEYLTAE; UniProt P0C0S8 47-62, looked up, fragment)
1.38 | 0 | 0.57 | 1.26 | 0.01 | 0.2 | 0.02 | 0.49 | 6.68 | 0.02 | 0.44 | 0.89 | – | H2A 49-64 (VYLAAVLEYLTAEILE; UniProt P0C0S8 50-65, looked up, fragment)
1.26 | 0 | 0.64 | 1.43 | 0.02 | 0.27 | 0.02 | 0.59 | 3.05 | 0.01 | 2.34 | 0.64 | – | H2A 55-70 (LEYLTAEILELAGNAA; UniProt P0C0S8 56-71, looked up, fragment)
1.48 | 0.01 | 0.69 | 1.08 | 0.02 | 19.1 | 0.02 | 7.17 | 0.12 | 0.02 | 40.23 | 1.01 | – | H2A 79-94 (IPRHLQLAIRNDEELN; UniProt P0C0S8 80-95, looked up, fragment)
